Measured values from patent US11407811B2, “Fusion protein, preparation method therefor and use thereof” (JIANGSU RONGTAI BIOTECH CO., LTD., priority 2017, dated 2022).

Columns and labels:
[1] = system: breast cancer cell MDA-MB-231; assay: MTT assay, proliferation of breast cancer cell MDA-MB-231; type: cell-based
Protocol: (§1) The MTT assay was used to detect the inhibitory effect of the integrin blocker fusion protein obtained in Example 1 on the proliferation of various tumor cells, including melanoma cell B16F10, gastric cancer cell MGC-803, lung cancer cell A549, liver cancer cell Hep-G2, breast cancer cell MDA-MB-231, colon cancer cell HCT-116, human glioma U87, and cervical cancer cell Hela.
(§2) The tumor cells were cultured in a 5% CO2 incubator at 37° C. to a density of 90% or more, and collected by trypsinization. The cells were resuspended in the culture liquid and counted under a microscope. The cell concentration was adjusted to 3.0×10^4 cells/mL. The cell suspension was inoculated into a 96-well plate at 100 μL per well and cultured overnight in a 5% CO2 incubator at 37° C. […] After the cells were fully adhered, each dilution was added to a 96-well plate at 100 μL per well, respectively. […] 20 μL of 5 mg/mL MTT was added to each well of a 96-well plate, and incubation was continued for 4 hours. The medium was aspirated and 100 μL of DMSO per well were added to dissolve. The absorbance was measured at 570 nm with a microplate reader with a reference wavelength of 630 nm, and the proliferation inhibition (PI) was calculated. The formula is as follows: […]
(§3) where Ntest is the OD value of the test group and Ncontrol is the OD value of the blank control group.
(§4) The test was repeated 5 times independently. The results obtained from the test were calculated as mean±SD, and statistical t-test was performed. P<0.05 was considered as a significant difference, and P<0.01 was considered as an extremely significant difference.

liver cancer cell Hep-G2 = assay: MTT assay, proliferation of liver cancer cell Hep-G2; type: cell-based
Protocol: as §1, §2, §3, §4

[2] = system: toe swelling in rat induced by carrageenan; assay: Acute inflammation of toe swelling in rat induced by carrageenan; type: in vivo; details: for Swelling degree 1 h: 1 h after carrageenan; for Swelling degree 1 h / Swelling degree 3 h / Swelling degree 5 h / Swelling degree 7 h: rat foot; for Swelling degree 3 h: 3 h after carrageenan; for Swelling degree 5 h: 5 h after carrageenan; for Swelling degree 7 h: 7 h after carrageenan
Protocol: 80 SD rats were randomly divided into 8 groups with 10 mice for each group. […] The drug was administered once by injection, and the model group was given an equal volume of physiological saline and fed normally. On the third day, 0.1 mL of 1% carrageenan was injected subcutaneously into the right hind toes of the rats to induce inflammation. The foot volume was measured at 1 h, 3 h, 5 h, and 7 h after inflammation. The swelling degree of the foot was calculated according to the following formula: the swelling degree of the foot (mL)=the volume of the foot after inflammation—the volume before inflammation. The number of milliliters of spilled liquid was recorded (method: the protruding point of the right joint was circled with a ballpoint pen and used as a measurement mark, and the right hind feet of the rat were sequentially placed in the volume measuring device, so that the hind limbs were exposed outside the cylinder, and the depth of the immersion was limited to the overlap of the circle and the liquid level. After the foot entered the liquid, the liquid level was raised, and the volume of the spilled liquid was the volume of the right hind foot of the rat, and the normal volume of the right hind foot of each rat is sequentially determined).

[3] = system: neovascularization in premature rat retinopathy model; assay: Neovascularization in premature rat retinopathy model (fluctuating oxygen-induced); type: in vivo
Protocol: A fluctuating oxygen-induced animal model was adopted, and newborn rats (within 12 hours) spontaneously delivered on the same day were randomly divided into three groups: an oxygen model group, an oxygen treatment group, and a normal control group. The oxygen model was subdivided into three model subgroups, which were placed in a semi-closed oxygen chamber made of plexiglass together with the treatment group. The medical oxygen was introduced into the chamber, and the oxygen concentration was adjusted to 80%±2% with an oxygen meter. After 24 hours, nitrogen gas was introduced into the oxygen chamber, and then the oxygen concentration was rapidly adjusted to 10%±2% and maintained for 24 hours. […] The oxygen concentration was monitored 8 times a day, and the ambient temperature in the chamber was controlled to 23° C.±2° C. […]
On day 14, after the rats was sacrificed with ether anesthesia, the eyeballs were removed and fixed in a 40 g/L paraformaldehyde solution for 24 hours. […] 10 sections were randomly selected from each eyeball to be stained with hematoxylin and eosin, and the nucleus of vascular endothelial cells that broke through the inner limiting membrane of the retina was counted (only the nucleus of vascular endothelial cells closely related to the inner limiting membrane were counted), and the average number of cells per section per eyeball was counted.

B1: Protein II: IgG2-Fc linked to antiangiogenesis polypeptide EDSM-Y via a flexible linker; SEQ ID NO: 17 (protein)
chain: ERKCCVECPPCPAPPVAGPSVFLFPPKPKDTLMISRTPEVTCVVVDVSHEDPEVQFNWYVDGVEVHNAKTKPREEQFNSTFRVVSVLTVVHQDWLNGKEYKCKVSNKGLPAPIEKTISKTKGQPREPQVYTLPPSREEMTKNQVSLTCLVKGFYPSDISVEWESNGQPENNYKTTPPMLDSDGSFFLYSKLTVDKSRWQQGNVFSCSVMHEALHNHYTQKSLSLSPGKGGGGSGGGGSGGGGSFQPVLHLVALNSPLSGGMRGIRGADFQCFQQARAVGLAGTFRAGGGGRGD
B1 was tested, and the “A570 nm/A630 nm” value ([1]; dose 1 μg/mL) was 0.9859 ± 0.0397, the “PI (%)” value ([1]; dose 1 μg/mL) was 5.09% and the “A570 nm/A630 nm” value ([1]; dose 2 μg/mL) was 0.9552 ± 0.0419. The “PI (%)” value ([1]; dose 2 μg/mL) was 8.05%, the “A570 nm/A630 nm” value ([1]; dose 4 μg/mL) was 0.9150 ± 0.0283 and the “PI (%)” value ([1]; dose 4 μg/mL) was 11.92%. The “A570 nm/A630 nm” value ([1]; dose 8 μg/mL) was 0.8806 ± 0.0345, the “PI (%)” value ([1]; dose 8 μg/mL) was 15.23% and the “A570 nm/A630 nm” value ([1]; dose 16 μg/mL) was 0.8110 ± 0.0298. For the same molecule, the “PI (%)” value ([1]; dose 16 μg/mL) was 21.93%, the “A570 nm/A630 nm” value ([1]; dose 32 μg/mL) was 0.7546 ± 0.0274 and the “PI (%)” value ([1]; dose 32 μg/mL) was 27.36%. For the same molecule, the “A570 nm/A630 nm” value ([1]; dose 64 μg/mL) was 0.6945 ± 0.0326, the “PI (%)” value ([1]; dose 64 μg/mL) was 33.14% and the “A570 nm/A630 nm” value ([1]; dose 128 μg/mL) was 0.6589 ± 0.0287. For the same molecule, the “PI (%)” value ([1]; dose 128 μg/mL) was 36.57%, the “A570 nm/A630 nm” value ([1]; dose 256 μg/mL) was 0.6012 ± 0.0311 and the “PI (%)” value ([1]; dose 256 μg/mL) was 42.13%. For the same molecule, the “A570 nm/A630 nm” value (liver cancer cell Hep-G2; dose 1 μg/mL) was 0.6746 ± 0.0372, the “PI (%)” value (liver cancer cell Hep-G2; dose 1 μg/mL) was 1.49% and the “A570 nm/A630 nm” value (liver cancer cell Hep-G2; dose 2 μg/mL) was 0.6132 ± 0.0253. The “PI (%)” value (liver cancer cell Hep-G2; dose 2 μg/mL) was 10.46%, the “A570 nm/A630 nm” value (liver cancer cell Hep-G2; dose 4 μg/mL) was 0.5799 ± 0.0396 and the “PI (%)” value (liver cancer cell Hep-G2; dose 4 μg/mL) was 15.32%. The “A570 nm/A630 nm” value (liver cancer cell Hep-G2; dose 8 μg/mL) was 0.5499 ± 0.0215, the “PI (%)” value (liver cancer cell Hep-G2; dose 8 μg/mL) was 19.70% and the “A570 nm/A630 nm” value (liver cancer cell Hep-G2; dose 16 μg/mL) was 0.5190 ± 0.0185. For the same molecule, the “PI (%)” value (liver cancer cell Hep-G2; dose 16 μg/mL) was 24.21%, the “A570 nm/A630 nm” value (liver cancer cell Hep-G2; dose 32 μg/mL) was 0.4706 ± 0.0374 and the “PI (%)” value (liver cancer cell Hep-G2; dose 32 μg/mL) was 31.28%. For the same molecule, the “A570 nm/A630 nm” value (liver cancer cell Hep-G2; dose 64 μg/mL) was 0.4256 ± 0.0268, the “PI (%)” value (liver cancer cell Hep-G2; dose 64 μg/mL) was 37.85% and the “A570 nm/A630 nm” value (liver cancer cell Hep-G2; dose 128 μg/mL) was 0.3801 ± 0.0174. The “PI (%)” value (liver cancer cell Hep-G2; dose 128 μg/mL) was 44.49%, the “A570 nm/A630 nm” value (liver cancer cell Hep-G2; dose 256 μg/mL) was 0.3156 ± 0.0151 and the “PI (%)” value (liver cancer cell Hep-G2; dose 256 μg/mL) was 53.91%. For the same molecule, the “inhibitory effect on liver cancer cell Hep-G2” value (liver cancer cell Hep-G2; in words) was “a certain inhibitory effect”, the “Swelling degree 1 h” value ([2]; 8 mg/kg) was 0.29 ± 0.25 mL and the “Swelling degree 3 h” value ([2]; 8 mg/kg) was 0.34 ± 0.09 mL. The “Swelling degree 5 h” value ([2]; 8 mg/kg) was 0.36 ± 0.12 mL, the “Swelling degree 7 h” value ([2]; 8 mg/kg) was 0.41 ± 0.09 mL and the “Swelling degree 1 h” value ([2]; 32 mg/kg) was 0.27 ± 0.06 mL. For the same molecule, the “Swelling degree 3 h” value ([2]; 32 mg/kg) was 0.41 ± 0.18 mL, the “Swelling degree 5 h” value ([2]; 32 mg/kg) was 0.37 ± 0.11 mL and the “Swelling degree 7 h” value ([2]; 32 mg/kg) was 0.33 ± 0.02 mL. The “Swelling degree 1 h” value ([2]; 128 mg/kg) was 0.21 ± 0.16 mL, the “Swelling degree 3 h” value ([2]; 128 mg/kg) was 0.32 ± 0.10 mL and the “Swelling degree 5 h” value ([2]; 128 mg/kg) was 0.41 ± 0.05 mL. The “Swelling degree 7 h” value ([2]; 128 mg/kg) was 0.36 ± 0.16 mL, the “inhibition of toe swelling induced by carrageenan” value ([2]; high doses) was “could significantly inhibit toe swelling” and the “inhibition of toe swelling induced by carrageenan” value ([2]; low dose) was “not significant”. The “Nucleus number (nucleus count of vascular endothelial cells)” value ([3]; 100 μg intravitreal injection on day 7, counted on day 14, per section per eyeball) was 7.238 ± 1.194 and the “nucleus counts of retinal vascular endothelial cells” value ([3]; intravitreal injection, dose of 100, day 14, oxygen model group 27.452±2.110) was 7.238±1.194.
